Reference: paper PMC11746146 (Nature Structural & Molecular Biology, 2024)
Residue numbers refer to the chain shown, from its start. Names may count otherwise.

Key:
[1] = target: human guanylate-binding protein 1 (GBP1), non-farnesylated (human) (UniProt P32455); experiment: SEC-MALS; protein at 15 µM with the GTP transition-state mimic GDP·AlF3, incubated 5–10 min at room temperature; Superdex200 Increase 10/300 GL; 50 mM HEPES pH 7.4, 150 mM NaCl, 0.5 mM TCEP or DTT
[2] = target: T1, farnesylated human GBP1 (GBP1F) (human, UniProt P32455, C-terminal C15-farnesyl moiety (CaaX isoprenylation motif)); experiment: SEC-MALS; nanobody mixed with GBP1 or GBP1F, in the presence and absence of GDP·AlF3; SDS–PAGE (and western blot for GFP–Nb74) of peak fractions; details: both partners purified
T1 construct: human GBP1, UniProt P32455, from pETM14-GBP1, co-translationally farnesylated; also called GBP1F–GDP·AlF3; WT GBP1F; source: E. coli BL21(DE3), co-expressed with FNTA-FNTB, purified (TALON, 3C cleavage, HIC, SEC); not shown: His6, N-terminal, cleaved

[3] = target: T2, human guanylate-binding protein 1 (GBP1), non-farnesylated (human, UniProt P32455); experiment: as above; details: both partners purified
T2 construct: human GBP1, UniProt P32455, codon-optimized synthetic DNA in pETM14; called full-length in the results; Dimer studied with GDP·AlF3 (200 µM GDP, 10 mM NaF, 300 µM AlCl3, 5 mM MgCl2); also called hGBP1; WT GBP1; source: E. coli BL21(DE3), purified (TALON, 3C cleavage, SEC); not shown: His6, N-terminal, cleaved

[4] = target: the molecule itself; experiment: mass photometry; Refeyn OneMP; samples with GDP·AlF3 diluted to 15 nM in 50 mM HEPES pH 7.5, 150 mM NaCl
[5] = target: the molecule itself; experiment: SEC-MALS; protein at 15 µM with the GTP transition-state mimic GDP·AlF3, incubated 5–10 min at room temperature; Superdex200 Increase 10/300 GL; 50 mM HEPES pH 7.4, 150 mM NaCl, 0.5 mM TCEP or DTT

human guanylate-binding protein 1 (GBP1), non-farnesylated (from UniProt P32455 1-592) (natural protein)
stoichiometry N [1]: 2

B1: nanobody 74 (Nb74) (VHH)
VHH: QVQLVESGGGLVQAGDSLRLSCAASGRALGNYYVGWFSQAPGKEREFVAAISWSGSSTFYADSVKGRFTISRDNAKNTVDLQMNSLKPEDTAVYYCAANPTAKLGSSWYQTPREFGYWGQGTQVTVSS
notes: llama nanobody selected by phage display; the entry PDB 8CQB / EMD-16794 is headed GBP1–GDP·AlF3–Nb74, but the deposited model is called the GBP1 dimer (956 protein residues), so Nb74 may not be in it; Raised in llamas immunized with monomeric GBP1, GBP1F or GDP·AlF3-stabilized dimeric GBP1; source: E. coli WK6 (su−), periplasmic extract, purified (Ni-NTA)
stoichiometry N [2]: 1 | stoichiometry N [3]: 1 molar ratio

B2: GBP1 D308S, non-farnesylated (natural protein, human, UniProt P32455 1-592, looked up)
chain: MASEIHMTGPMCLIENTNGRLMANPEALKILSAITQPMVVVAIVGLYRTGKSYLMNKLAGKKKGFSLGSTVQSHTKGIWMWCVPHPKKPGHILVLLDTEGLGDVEKGDNQNDSWIFALAVLLSSTFVYNSIGTINQQAMDQLYYVTELTHRIRSKSSPDENENEVEDSADFVSFFPDFVWTLRDFSLDLEADGQPLTPDEYLTYSLKLKKGTSQKDETFNLPRLCIRKFFPKKKCFVFDRPVHRRKLAQLEKLQDEELDPEFVQQVADFCSYIFSNSKTKTLSGGIQVNGPRLESLVLTYVNAISSGSLPCMENAVLALAQIENSAAVQKAIAHYEQQMGQKVQLPTETLQELLDLHRDSEREAIEVFIRSSFKDVDHLFQKELAAQLEKKRDDFCKQNQEASSDRCSALLQVIFSPLEEEVKAGIYSKPGGYRLFVQKLQDLKKKYYEEPRKGIQAEEILQTYLKSKESMTDAILQTDQTLTEKEKEIEVERVKAESAQASAKMLQEMQRKNEQMMEQKERSYQEHLKQLTEKMENDRVQLLKEQERTLALKLQEQEQLLKEGFQKESRIMKNEIQDLQTKMRRRKACTIS
notes: human GBP1, UniProt P32455, variant made from pETM14-GBP1 by QuikChange mutagenesis; source: E. coli BL21(DE3), purified (TALON, 3C cleavage, SEC); not shown: His6, N-terminal, cleaved
binding result [4]: binds

B3: GBP1 Y143A, non-farnesylated (natural protein, human, UniProt P32455 1-592, looked up)
chain: B2 chain with Y143A, S308D
notes: as for B2
binding result [4]: binds

B4: GBP1 K466D, non-farnesylated (natural protein, human, UniProt P32455 1-592, looked up)
chain: B2 chain with S308D, K466D
notes: as for B2
binding result [4]: binds

B5: GBP1F R584–586A (natural protein, human, UniProt P32455 1-592, looked up)
chain: B2 chain with S308D, R584A, R585A, R586A
modifications: C-terminal C15-farnesyl moiety (CaaX isoprenylation motif)
notes: human GBP1, UniProt P32455, polybasic motif R584–R586 changed to alanines, farnesylated; also called GBP1F R584-R586; source: E. coli BL21(DE3), purified; not shown: His6, N-terminal, cleaved
binding result [5]: binds
